Source: the supplement of paper PMC10567573

B1: MYBL2 (parent)
chain: FSPSQFLNFWNKQDTLELESPSLT
B2: WDFY1 (parent)
chain: FWNIKQMWDTKTLGLRQHHCRKCG

Variants of: B1
Experiment: protein stability index of a GFP-peptide fusion (GPS, HEK-293T) (PSI 1-6); higher = more stable
Conditions: c terminus: a fixed tail appended
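Note: lentivirally expressed fusions sorted by FACS into six bins by GFP to DsRed ratio, PSI derived from sequencing read proportions per bin multiplied by bin number.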

Protein stability index of substitutions, site by site:
T24: C 3.38; I 2.2; W 2.86; R 3.41; A 3.17; K 3.62; S 2.36; Y 2.73; L 2.52; N 2.1; M 2.65; E 2.34; P 3.08
L23: I 4.19; M 2.41; H 2.79; G 2.27; D 3.49; A 2.08; S 2.13; C 2.71; F 3.38; N 2.65; R 2.97; V 2.91; E 2.26
P21: S 2.09; W 3.86; R 2.36; V 2.53; T 2.36; Y 2.69
S22: I 2.72; C 4.69; W 3; F 3.27; V 2.95; H 2.56; T 2.82; Y 2.61; N 3.17; P 1.89; K 3.1

Variants of: B2
Experiment: as above
Conditions: c terminus: a fixed tail appended

Protein stability index of substitutions, site by site:
M7: K 2.35; C 2.06; A 1.89; G 1.89; D 2.54; F 1.77; L 2.39; Y 2.45
R16: G 1.64; H 2.5; Y 1.6; M 1.65; V 1.88; L 1.79; C 1.59; E 2.3; N 2.1; T 2.55; S 2.21
T10: V 2.04; H 2.13; P 2.28; D 2.56; R 2.06; C 2.11; N 2.04; G 1.89; M 2.16; K 3.11; F 2.52; S 2.18; W 2.48; Q 1.91; A 1.48; E 2.39
K22: D 3.4; G 1.82; A 1.59; Q 2.01; N 1.99; F 3.26; P 1.98; V 1.41; M 1.03; L 1.34; H 1.44; E 1.6
G24: I 2.11; Q 2.21; S 2.1; N 2.09; M 1.85; E 2.18; V 2.01; T 2.29; R 2.35; A 1.84; D 2.15; W 2.12; F 1.96; L 2.22; P 1.88; H 2.13; K 2.5
Q17: N 2.14; R 2.75; C 2.13; F 1.88; L 2.53; E 2.56; W 2.02; T 2.12; H 1.83; S 2.05; G 2.98; V 1.68
H18: Y 2.08; V 2.02; E 2.21; R 2.21; M 2.27; A 1.84; N 2.35; I 2.01; K 1.89; S 2.58; P 2.63; F 1.64
K5: Q 2.03; C 1.79; S 1.72; R 1.82; N 2.28; H 2.03; A 1.97; G 1.96; F 2.33; W 2.11; D 2.27; P 2.17; Y 1.36
G14: Q 2.54; N 2.08; S 1.97; D 2.69; R 3.17; E 2.44; Y 1.48; W 1.87; I 1.87; P 2.11; C 2.27
H19: M 1.92; F 1.64; A 2.14; E 2.09; D 2.21; I 2; P 2.66; R 1.75; S 2.13; K 2.33; L 2.23; W 1.66; Q 2.4; T 1.59; C 2.14
Q6: A 1.9; K 2.13; W 1.79; R 2.38; N 2.22; L 1.47; G 2.55; C 2.29; V 2.5; D 2.42; H 2.22; F 2.36; T 2.04
K11: Y 1.77; E 3.03; V 1.97; Q 1.77; L 1.54; S 2.57; W 2.44; F 1.92
D9: V 3.82; M 1.25; I 1.94; K 1.33; S 2.02; T 1.47; L 1.6; E 1.95; F 1.7; H 2.05; Y 1.89
F1: Q 2.31; V 1.97; D 2.79; G 2.3; T 2.28; W 2.16; C 2.65; H 2.36; E 2.61; Y 2.02; S 2.46; R 1.54
L13: N 1.96; Q 2.02; G 2.01; Y 2.67; M 2; V 2.15; D 1.7; E 2.56; S 2.37; W 2.01; P 2.22; K 2.08
C23: H 2.78; F 1.59; M 2.6; Y 2.04; A 2.18; K 2.71; I 1.93; D 2.82; T 2.34
T12: Q 2.39; N 1.84; E 1.72; I 1.63; L 1.36; W 1.79; C 3.57; F 2.11; K 2; H 1.86; P 1.98; G 1.77
I4: Y 1.9; N 2.13; C 2.67; A 1.89; R 1.45; F 1.54; Q 3.12; W 3.44; V 2.52; L 1.74; E 3.05
N3: D 2.02; K 1.41; M 2.23; C 2.56; V 1.27; L 1.54; P 2.57; A 1.56; F 1.96; E 2.05; W 2.85; R 2.13; I 1.5; Q 1.96; G 2.17
W8: N 2.25; E 2.44; F 1.67; K 2.18; Y 2.6; D 3.27; L 1.76; C 2.54; A 2.57; V 2.15
R21: H 1.57; G 1.84; I 1.72; F 1.85; Y 2.14; E 2.07; K 2.78; T 2.62; N 1.83; D 2.8; A 2.03; C 2.12; W 2.46; M 1.71; S 2.16; P 2.07
L15: Y 1.98; P 1.55; G 1.78; K 2.14; T 2.43; D 1.56; N 2.07; E 3.35; H 2.43; F 1.91; Q 2.29; A 2.27
W2: D 2.19; F 2.55; V 2.71; L 2.47; I 2.41; N 2.46; E 2.53; T 1.67; R 2.82; Q 1.75; S 1.62
C20: S 2.44; N 2.52; D 3.16; L 2.23; A 1.82; W 2.06; P 1.73; Q 3.22; M 2.57; G 1.87; H 2.69; F 2.41
